The values below come from patent US20070293656A1, “COLLAGEN BINDING PEPTIDES” (Epix Pharmaceuticals, Inc., priority 2005, published 2007).

Read-outs that look alike come from different tables or passages of the source. Bridge positions count the residues as written; N and C are the ends. Square brackets hold non-standard residues; d marks the D form. Primed or numbered codes have the meaning given here. Side chains are listed from the residue outwards. Ends that are not written are not given here. * marks the point of attachment. GdT″ = Gd-DTPA chelate conjugated through a thiourea; Dip = N[C@H](C(=O)O)C(c1ccccc1)c1ccccc1; Orn = NCCC[C@H](N)C(=O)O; Gd^T″ = GdDTPA-thiourea; Cbz = O=C(OCc1ccccc1)*

For assay [1], the target named is T1, human collagen type I (Homo sapiens, UniProt P02452+P08123).
T1 construct: Acid soluble human collagen extracted from placenta; purchased Sigma C7774 (lot #083K375); host or cells: human placenta
T1 sequence (P02452 162-1218 limits assumed): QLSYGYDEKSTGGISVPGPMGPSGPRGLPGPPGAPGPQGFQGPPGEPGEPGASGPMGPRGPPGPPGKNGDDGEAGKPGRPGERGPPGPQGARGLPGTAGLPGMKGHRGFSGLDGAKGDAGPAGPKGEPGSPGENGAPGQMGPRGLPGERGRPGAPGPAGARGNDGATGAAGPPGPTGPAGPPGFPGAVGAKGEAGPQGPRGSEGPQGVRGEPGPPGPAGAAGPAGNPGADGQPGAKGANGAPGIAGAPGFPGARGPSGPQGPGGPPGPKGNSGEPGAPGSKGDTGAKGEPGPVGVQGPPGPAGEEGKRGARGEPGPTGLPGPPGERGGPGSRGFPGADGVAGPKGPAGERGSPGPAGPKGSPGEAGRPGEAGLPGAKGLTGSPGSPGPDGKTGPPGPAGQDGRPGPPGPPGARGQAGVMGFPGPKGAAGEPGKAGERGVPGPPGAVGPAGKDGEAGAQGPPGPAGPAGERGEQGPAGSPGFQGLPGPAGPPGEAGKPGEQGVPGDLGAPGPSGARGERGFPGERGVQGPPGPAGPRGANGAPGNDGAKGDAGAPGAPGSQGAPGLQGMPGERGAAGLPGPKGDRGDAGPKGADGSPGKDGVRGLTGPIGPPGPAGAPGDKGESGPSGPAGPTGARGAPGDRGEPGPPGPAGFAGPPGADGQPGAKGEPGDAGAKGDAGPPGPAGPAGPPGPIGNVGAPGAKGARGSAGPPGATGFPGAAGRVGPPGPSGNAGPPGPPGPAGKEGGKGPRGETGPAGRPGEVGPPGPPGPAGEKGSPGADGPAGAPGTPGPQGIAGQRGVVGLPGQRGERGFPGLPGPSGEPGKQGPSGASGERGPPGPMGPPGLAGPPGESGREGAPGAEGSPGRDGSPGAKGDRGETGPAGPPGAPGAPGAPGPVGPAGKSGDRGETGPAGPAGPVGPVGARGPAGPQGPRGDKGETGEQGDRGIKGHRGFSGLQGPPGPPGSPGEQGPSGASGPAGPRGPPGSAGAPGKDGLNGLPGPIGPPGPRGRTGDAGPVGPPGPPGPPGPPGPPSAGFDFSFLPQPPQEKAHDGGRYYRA
T1 sequence (P08123 80-1119 limits assumed): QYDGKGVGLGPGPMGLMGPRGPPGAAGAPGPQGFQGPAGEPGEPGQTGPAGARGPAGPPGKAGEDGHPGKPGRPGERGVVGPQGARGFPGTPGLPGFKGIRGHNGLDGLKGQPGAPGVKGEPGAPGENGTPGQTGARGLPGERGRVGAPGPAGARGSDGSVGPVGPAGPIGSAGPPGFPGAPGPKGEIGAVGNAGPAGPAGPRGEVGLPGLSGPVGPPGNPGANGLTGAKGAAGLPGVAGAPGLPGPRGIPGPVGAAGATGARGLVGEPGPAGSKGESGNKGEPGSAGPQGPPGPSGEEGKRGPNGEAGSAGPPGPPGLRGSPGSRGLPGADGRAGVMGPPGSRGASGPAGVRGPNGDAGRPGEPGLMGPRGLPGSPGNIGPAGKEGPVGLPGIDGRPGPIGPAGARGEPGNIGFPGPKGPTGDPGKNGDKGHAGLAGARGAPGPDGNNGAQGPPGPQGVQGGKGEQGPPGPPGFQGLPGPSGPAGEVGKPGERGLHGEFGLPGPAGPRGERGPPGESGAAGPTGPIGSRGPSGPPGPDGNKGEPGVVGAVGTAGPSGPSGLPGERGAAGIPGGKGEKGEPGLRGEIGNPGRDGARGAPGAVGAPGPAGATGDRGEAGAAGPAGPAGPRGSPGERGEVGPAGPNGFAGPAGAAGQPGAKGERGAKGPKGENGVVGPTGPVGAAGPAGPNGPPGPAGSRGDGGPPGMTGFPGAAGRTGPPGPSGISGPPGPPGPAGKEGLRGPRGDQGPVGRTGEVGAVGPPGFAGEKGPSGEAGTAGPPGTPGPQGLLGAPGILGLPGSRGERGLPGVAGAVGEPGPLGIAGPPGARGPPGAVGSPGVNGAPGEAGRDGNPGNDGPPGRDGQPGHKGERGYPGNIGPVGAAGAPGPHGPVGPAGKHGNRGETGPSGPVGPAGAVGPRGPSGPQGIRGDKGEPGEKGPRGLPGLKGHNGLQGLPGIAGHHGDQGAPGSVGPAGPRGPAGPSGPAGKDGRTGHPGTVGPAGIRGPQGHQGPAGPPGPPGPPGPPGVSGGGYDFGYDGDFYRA
The assay is described as follows: Dried collagen assay (DCA): percent binding to dried human collagen. Conditions: 5 μM peptide in PBS, pH 7.4, 2 hours at room temperature. The procedure: Acid soluble human collagen extracted from placenta (Sigma, cat #C7774, lot #083K375) is dissolved in 15 mM HCl (3.5 mg/ml) by vortexing and gently shaking for 3-4 hours at 4° C. The acid soluble collagen is […] against PBS, pH 7.4 (three buffer exchanges are used). The […] protein concentration is determined by the BCA method (Pierce, Cat #23225) using bovine collagen (Vitrogen, cat #FXP-019) as a reference standard. Percent gelation (fibril formation) of the collagen is determined by incubating 10 μM collagen (3.3 mg/ml) at 37° C. for 6 hours. A typical percent gelation is 60%.
(§1) An additional 90 μL is reserved in a HPLC glass vial as a measure of the total concentration.

Assay [2] addresses T2, rat collagen type I (Rattus norvegicus, UniProt P02454+P02466).
T2 construct: Rat collagen (acid soluble, type I, rat tail); purchased Upstate USA, Inc 08-115; host or cells: rat tail
Description: Dried collagen assay (DCA): percent binding to dried rat collagen. Conditions: 5 μM peptide in PBS, pH 7.4, 2 hours at room temperature. The method, then: Rat collagen (acid soluble, type I, rat tail, Upstate USA, Inc, cat #08-115) is dialyzed against 10 mM Phosphate (NaH2PO4), pH 4.2 with three changes of the dialysis buffer. For the final assay, a 1:10 volume of 10×PBS (100 mM NaH2PO4, 1.5 M NaCl pH 7.4) is added to the collagen solution (final 1×PBS) and incubated at 37° C. for 2 hours. The gelation is typically 90%.
as §1

Assay [3] deals with T3, human collagen type I (acid soluble, extracted from placenta, Sigma C7774) (human, UniProt P02452 162-1218; P08123 80-1119).
T3 construct: gelled and dried as a fibril film in the assay; also called dried human collagen; h-Collagen
T3 sequence (P02452 162-1218 limits assumed, chain 1 of 2): as the sequence (P02452 162-1218 limits assumed) above
T3 sequence (P08123 80-1119 limits assumed, chain 2 of 2): as the sequence (P08123 80-1119 limits assumed) above
Description: dried collagen assay.

Assay [4] has as its target T4, rat collagen (acid soluble, type I, rat tail, Upstate 08-115) (rat, UniProt P02454 152-1207; P02466 86-1125).
T4 construct: also called dried rat collagen; insoluble rat collagen
The assay is described as follows: dried collagen assay.

The target in assay [5] is rat collagen (acid soluble, type I, rat tail, Upstate 08-115) (rat) (UniProt P02454). Description: dried collagen assay.
rat collagen (acid soluble, type I, rat tail, Upstate 08-115) (rat), sequence (P02454 152-1207 limits assumed, chain 1 of 2): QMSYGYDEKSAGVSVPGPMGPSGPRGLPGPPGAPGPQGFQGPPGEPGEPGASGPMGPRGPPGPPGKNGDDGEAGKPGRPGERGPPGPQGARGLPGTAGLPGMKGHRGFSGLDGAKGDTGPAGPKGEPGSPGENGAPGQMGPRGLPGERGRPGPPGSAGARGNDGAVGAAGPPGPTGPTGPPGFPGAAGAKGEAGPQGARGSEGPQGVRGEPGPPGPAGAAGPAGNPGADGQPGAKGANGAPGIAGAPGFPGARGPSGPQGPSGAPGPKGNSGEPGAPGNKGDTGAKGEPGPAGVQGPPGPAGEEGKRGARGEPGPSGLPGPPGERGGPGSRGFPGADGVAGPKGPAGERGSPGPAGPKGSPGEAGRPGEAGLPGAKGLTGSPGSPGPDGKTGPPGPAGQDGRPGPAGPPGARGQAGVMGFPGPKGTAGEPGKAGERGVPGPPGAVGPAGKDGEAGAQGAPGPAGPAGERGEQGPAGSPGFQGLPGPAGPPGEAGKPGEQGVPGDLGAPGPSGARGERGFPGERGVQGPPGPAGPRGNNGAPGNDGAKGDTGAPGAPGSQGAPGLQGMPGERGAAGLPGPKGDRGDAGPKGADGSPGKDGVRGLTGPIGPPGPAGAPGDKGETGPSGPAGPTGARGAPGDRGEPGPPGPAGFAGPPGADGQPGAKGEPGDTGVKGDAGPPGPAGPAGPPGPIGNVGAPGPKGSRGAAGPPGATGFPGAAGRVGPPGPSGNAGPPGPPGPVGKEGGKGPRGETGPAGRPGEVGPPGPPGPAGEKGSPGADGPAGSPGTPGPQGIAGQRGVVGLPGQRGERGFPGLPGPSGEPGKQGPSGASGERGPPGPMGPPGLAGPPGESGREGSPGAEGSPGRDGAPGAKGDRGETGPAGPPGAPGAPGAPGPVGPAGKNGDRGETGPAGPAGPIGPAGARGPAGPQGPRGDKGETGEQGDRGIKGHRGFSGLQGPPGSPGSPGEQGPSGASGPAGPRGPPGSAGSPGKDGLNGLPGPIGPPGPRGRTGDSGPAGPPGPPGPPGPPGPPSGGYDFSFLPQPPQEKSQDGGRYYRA
rat collagen (acid soluble, type I, rat tail, Upstate 08-115) (rat), sequence (P02466 86-1125 limits assumed, chain 2 of 2, further chain): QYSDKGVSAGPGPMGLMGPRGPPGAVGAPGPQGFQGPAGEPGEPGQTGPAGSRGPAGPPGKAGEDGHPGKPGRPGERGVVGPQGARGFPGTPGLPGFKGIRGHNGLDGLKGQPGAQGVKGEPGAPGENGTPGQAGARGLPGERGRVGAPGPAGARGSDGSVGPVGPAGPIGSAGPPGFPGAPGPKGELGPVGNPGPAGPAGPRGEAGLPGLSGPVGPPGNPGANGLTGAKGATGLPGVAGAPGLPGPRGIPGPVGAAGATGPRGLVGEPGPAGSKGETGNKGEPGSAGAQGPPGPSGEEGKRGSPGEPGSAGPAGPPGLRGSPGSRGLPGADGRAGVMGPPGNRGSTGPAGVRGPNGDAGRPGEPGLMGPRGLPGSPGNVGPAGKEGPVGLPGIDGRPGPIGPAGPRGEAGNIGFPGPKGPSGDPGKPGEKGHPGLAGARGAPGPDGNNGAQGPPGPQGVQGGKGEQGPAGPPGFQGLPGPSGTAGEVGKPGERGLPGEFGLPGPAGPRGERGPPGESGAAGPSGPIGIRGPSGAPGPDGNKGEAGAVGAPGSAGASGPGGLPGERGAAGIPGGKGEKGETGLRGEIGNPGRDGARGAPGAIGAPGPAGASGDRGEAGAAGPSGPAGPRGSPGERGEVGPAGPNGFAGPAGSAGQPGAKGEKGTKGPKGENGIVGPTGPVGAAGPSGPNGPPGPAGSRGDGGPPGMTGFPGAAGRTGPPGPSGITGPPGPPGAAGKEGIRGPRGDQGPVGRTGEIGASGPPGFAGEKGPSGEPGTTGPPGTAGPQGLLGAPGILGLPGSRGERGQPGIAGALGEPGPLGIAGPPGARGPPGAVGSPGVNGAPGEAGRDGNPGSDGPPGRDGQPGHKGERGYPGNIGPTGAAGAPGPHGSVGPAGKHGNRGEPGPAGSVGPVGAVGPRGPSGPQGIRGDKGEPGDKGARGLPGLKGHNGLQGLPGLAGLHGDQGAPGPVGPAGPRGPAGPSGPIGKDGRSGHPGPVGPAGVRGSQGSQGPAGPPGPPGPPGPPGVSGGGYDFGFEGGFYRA
The target of assay [6] is T4, rat collagen (acid soluble, type I, rat …). Description: dried collagen assay. The source holds these as a separate data set.
In assay [7] the target is T3, human collagen type I (acid soluble, …). Description: dried collagen assay. This is another data set of the same source.
The target of assay [8] is T4, rat collagen (acid soluble, type I, rat …). The assay is described as follows: dried collagen assay. The source holds these as a separate data set.
Assay [9] concerns the target human collagen type I (acid soluble, extracted from placenta, Sigma C7774) (human) (UniProt P02452). Description: dried collagen assay.

T2 sequence (P02454 152-1207 limits assumed): as the sequence (P02454 152-1207 limits assumed, chain 1 of 2) above
T2 sequence (P02466 86-1125 limits assumed): as the sequence (P02466 86-1125 limits assumed, chain 2 of 2, further chain) above
T4 sequence (P02454 152-1207 limits assumed, chain 1 of 2): as the sequence (P02454 152-1207 limits assumed, chain 1 of 2) above
T4 sequence (P02466 86-1125 limits assumed, chain 2 of 2): as the sequence (P02466 86-1125 limits assumed, chain 2 of 2, further chain) above
human collagen type I (acid soluble, extracted from placenta, Sigma C7774) (human), sequence (P02452 162-1218 limits assumed, chain 1 of 2): as the sequence (P02452 162-1218 limits assumed) above
human collagen type I (acid soluble, extracted from placenta, Sigma C7774) (human), sequence (P08123 80-1119 limits assumed, chain 2 of 2, further chain): as the sequence (P08123 80-1119 limits assumed) above

Turning to “168 (QWTC[dS]GDEYTWHCNYE; disulfide 4-13 (inferred)) [compound 168]”, the “% Collagen Binding Dried Human” value in [1] came to 3%. Also, the “% Collagen Binding Dried Rat” value in [2] came to 2%.
With 65 (KWECVHTKGEWYCETK) [compound 65], the “Dried Human Collagen Binding” value in assay [1] worked out at 7%.
Take “173 (QWTCSGDEYT[dW]HCNYE; disulfide 4-13 (inferred)) [compound 173]”: in [1], the “% Collagen Binding Dried Human” value was 5%. For the same molecule, the “% Collagen Binding Dried Rat” value in [2] was 4%.
As for “130 (WWACQKGRHDWEKCRWL; disulfide 4-14 (inferred)) [compound 130]”, the “Dried Human Collagen Binding” value in assay [1] was 32%.
Consider 2 (WGWCEWAQNNCWNY) [compound 2], for which, in assay [1], the “Dried Human Collagen Binding” value is on record as 14%.
As for “142 (QWTCSADEYTWHCNYE; disulfide 4-13 (inferred)) [compound 142]”, the “% Collagen Binding Dried Rat” value in assay [2] came out at 6%.
The same measure, in the same setting: for “163 ([dY][dH][dA][dC][dY][dQ][dA]G[dC][dW][dI][dW]; disulfide 4-9 (inferred)) [compound 163]” the value was 53%.
As to “112 (AKACSVHDEFGCLIS; disulfide 4-12 (inferred)) [compound 112]”, the “Dried Human Collagen Binding” value in assay [1] is given as 9%.
“169 (QWTCSG[dD]EYTWHCNYE; disulfide 4-13 (inferred)) [compound 169]”: in assay [2], the “% Collagen Binding Dried Rat” value is 4%.
As for 38 (GWSCHGDAADWPCQWS) [compound 38], the “Dried Human Collagen Binding” value in assay [1] is 6%.
On to “171 (QWTCSGDE[dY]TWHCNYE; disulfide 4-13 (inferred)) [compound 171]”, for which the “% Collagen Binding Dried Rat” value in [2] is given as 6%.
Turning to “174 (QWTCSGDEYTW[dH]CNYE; disulfide 4-13 (inferred)) [compound 174]”, the “% Collagen Binding Dried Human” value in [1] came out at 5%.
Same read-out and setting: with “147 (QWTCSGDEYTAHCNYE; disulfide 4-13 (inferred)) [compound 147]” the figure was 5%; with “167 (QWT[dC]SGDEYTWHCNYE; disulfide 4-13 (inferred)) [compound 167]”, 4%.
As to 36 (SWSCGGDHNAWKCQYS) [compound 36], in assay [1], the “Dried Human Collagen Binding” value turned out to be 7%.
The same measure, in the same setting: with “113 (FSECVWVNAYQCEYF; disulfide 4-12 (inferred)) [compound 113]” the figure was 3%; with 3 (PWWCHEMPSMCFGF) [compound 3], 2%.
On to “175 (QWTCSGDEYTWH[dC]NYE; disulfide 4-13 (inferred)) [compound 175]”, for which the “% Collagen Binding Dried Human” value in [1] amounted to 2%. Further, the “% Collagen Binding Dried Rat” value in [2] is on record as 2%.
On to “176 (QWTCSGDEYTWHC[dN]YE; disulfide 4-13 (inferred)) [compound 176]”, for which, in assay [1], the “% Collagen Binding Dried Human” value is given as 2%. Besides, the “% Collagen Binding Dried Rat” value in [2] worked out at 2%.
Regarding “166 (QW[dT]CSGDEYTWHCNYE; disulfide 4-13 (inferred)) [compound 166]”, the “% Collagen Binding Dried Human” value in [1] is listed as 2%. Besides, the “% Collagen Binding Dried Rat” value in assay [2] was determined as 3%.
For “165 (Q[dW]TCSGDEYTWHCNYE; disulfide 4-13 (inferred)) [compound 165]”, in that order: 2% and 4%.
For “137 (YHACYQAGCWAW; disulfide 4-9 (inferred)) [compound 137]”, the “% Collagen Binding Dried Rat” value in assay [2] is given as 7%.
In the case of “159 (YHACYQAG[dC]WIW; disulfide 4-9 (inferred)) [compound 159]”, in assay [1], the “% Collagen Binding Dried Human” value is 7%.
For AHACYQAGCWIW (disulfide 4-9 (inferred)) [SEQ ID NO: 131], the “% bound” value in assay [3] stood at 7%; in assay [4] it was 12%.
For YHACYQAACWIW (disulfide 4-9 (inferred)) [SEQ ID NO: 135], in that order: 72% and 88%.
In the case of YHACAQAGCWIW (disulfide 4-9 (inferred)) [SEQ ID NO: 133], the “% bound” value in assay [3] turned out to be 4%; in assay [4] it was 5%.
For YHACYAAGCWIW (disulfide 4-9 (inferred)) [SEQ ID NO: 134] the same measures were 14% and 1%.
Consider YHACYQAGCWAW (disulfide 4-9 (inferred)) [SEQ ID NO: 137], for which the figures for the % bound in assay [5] and in [3] were 7% and 4%, respectively.
Turning to YHACYQAGCAIW (disulfide 4-9 (inferred)) [SEQ ID NO: 136], the “% bound” value in [3] and in assay [4] was 2% each time.
Consider GQWHCTTRFPHHYXLYG (not fully specified; Gd^T-GQWHCTTRFPHHY-Pen-LYG) [Comp ID 906], for which the “% bound” value in assay [6] turned out to be 5%.
Take Y[dH]ACYQAGCWIW (disulfide 4-9 (inferred)) [SEQ ID NO: 153]: the “% bound” value in assay [7] and in [8] was 0% in each case.
Regarding {GdT″}-GK([Gly-GdT″])WHCTTYFPHH[Dip]CLYG (disulfide 5-14; not fully specified (C-terminus)) [Comp ID 968], in assay [6], the “% bound” value was determined as 64%.
For YH[dA]CYQAGCWIW (disulfide 4-9 (inferred)) [SEQ ID NO: 154], the “% bound” value was found to be 24% in [7] and 21% in [8].

B1: Comp ID 941 (peptide)
peptide: Cbz-GQWHCT[Orn](Gd^T″)RFPHHYCLYG
modifications: disulfide 5-14; not fully specified (C-terminus); printed as cbz-GQWHCT-Orn(Gd^T)-RFPHHYCLYG
B1: the results for the % bound in [9] and in assay [6] were 8% and 5%, respectively.

B2: Comp ID 967 (peptide)
peptide: {Gd^T″}-GK([Gly-Gd^T″])WHCTTYFPHHYCL[Dip]G
modifications: disulfide 5-14 (inferred); not fully specified (C-terminus); printed as Gd^T-G-K(G.Gd^T)-WHCTTYFPHHYCL-Dip-G
Regarding B2, the “% bound” value in [6] is 4%.
In the case of YAACYQAGCWIW (disulfide 4-9 (inferred)) [SEQ ID NO: 132], the “% bound” value in [3] stood at 53%; in assay [4], 37%.
Regarding YHACYQAGCWIA (disulfide 4-9 (inferred)) [SEQ ID NO: 138], the “% bound” value was determined as 2% in [3] and 1% in assay [4].
With GQWHCTTRFPHAYCLYG (not fully specified; Gd^T-GQWHCTTRFPHAYCLYG) [Comp ID 878], the % bound in assay [9] amounted to 8%; in [6], 9%.
As to GQWHCTTDFPHHYCLYG (not fully specified; Gd^T-GQWHCTTD-F(4-NH2)(Gd^T)-PHHYCLYG) [Comp ID 885], the “% bound” value in [6] was found to be 9%.
On to GQWHCTDRFPHHYCLYG (not fully specified; Gd^T-GQWHCTDRFPHHYCLYG) [Comp ID 936], for which the “% bound” value in [6] was 5%.
